These results are taken from article PMC2966067.

For this test, the target named is GST-Pin1 (UniProt Q13526). Description: pull-down.

On to “FLAG-MEF2C S98A/S110A/S240A/S388A (natural protein)”, for which the percent of wild-type binding (densitometry) was determined as 10%.

In the case of FLAG-MEF2C S98/110A (natural protein), the percent reduction of binding against wild type (densitometry) came to 70%.
